Source: patent publication US20050281829A1, “Fc chimeric proteins with anti-HIV drugs” (priority 2003, published 2005)
Read-outs that look alike come from different tables or passages of the source.

Legend:
[1] = target: human serum albumin (Homo sapiens, UniProt P02768); conditions: SPR, FIG. 11
[2] = neonatal rats, oral (gavage); FIG. 9
From the text: The blood was allowed to clot and the serum was separated and frozen until analysis.

[3] = monkeys, single intravenous bolus; FIG. 8A/8B
Procedure: The animals were sedated with ketamine (≈10 mg/kg) prior to dosing. The hair from the dosing area were clipped, cleansed with alcohol, and air-dried prior to delivering the dose. This was followed by a 3 mL saline flush. Samples were obtained from the femoral vein at indicated times. The blood was allowed to clot and the serum was separated and frozen until analysis.

| Substance | binding to human serum albumin relative to binding of either FcT20 or T20Fc ([1]; 25° C., Req divided by molecular weight) | serum half life [2] | binding to human serum albumin (in words) [1] | serum half life [3] |
| --- | --- | --- | --- | --- |
| enfuvirtide | more than 3 fold | – | – | – |
| Fc-T20: Recombinant chimeric protein: human Fc linked via a glycine peptide linker to T20 at the Fc C terminus (SEQ ID NO:4) | – | 23 h | reduced binding | greater than 40 hours |
